In patent US20190225650A1, “PEPTIDOMIMETIC MACROCYCLES AND USE THEREOF IN REGULATING HIF1ALPHA” (AILERON THERAPEUTICS, INC., priority 2013, published 2019):
Bridge positions count the residues as written; N and C are the ends. Square brackets hold non-standard residues; d marks the D form. R8 = C=CCCCCCC[C@@](C)(N)C(=O)O; S5 = C=CCCC[C@](C)(N)C(=O)O; Nle = CCCC[C@H](N)C(=O)O

B1: SP-282 (peptide)
peptide: Ac-FIDEQVLM[S5]LVI[S5]MALDRI-NH2
modifications: staple 9-13
SMILES: CC[C@H](C)[C@H](NC(=O)[C@H](CCCNC(=N)N)NC(=O)[C@H](CC(=O)O)NC(=O)[C@H](CC(C)C)NC(=O)[C@H](C)NC(=O)[C@H](CCSC)NC(=O)[C@]1(C)CCCC=CCCC[C@](C)(NC(=O)[C@H](CCSC)NC(=O)[C@H](CC(C)C)NC(=O)[C@@H](NC(=O)[C@H](CCC(N)=O)NC(=O)[C@H](CCC(=O)O)NC(=O)[C@H](CC(=O)O)NC(=O)[C@@H](NC(=O)[C@H](Cc2ccccc2)NC(C)=O)[C@@H](C)CC)C(C)C)C(=O)N[C@@H](CC(C)C)C(=O)N[C@@H](C(C)C)C(=O)N[C@@H]([C@@H](C)CC)C(=O)N1)C(N)=O
B2: SP-89 (peptide)
peptide: Ac-EVLM[S5]LVI[S5]MGLDRIKELPELWL-NH2
modifications: staple 5-9
SMILES: CC[C@H](C)[C@H](NC(=O)[C@H](CCCNC(=N)N)NC(=O)[C@H](CC(=O)O)NC(=O)[C@H](CC(C)C)NC(=O)CNC(=O)[C@H](CCSC)NC(=O)[C@]1(C)CCCC=CCCC[C@](C)(NC(=O)[C@H](CCSC)NC(=O)[C@H](CC(C)C)NC(=O)[C@@H](NC(=O)[C@H](CCC(=O)O)NC(C)=O)C(C)C)C(=O)N[C@@H](CC(C)C)C(=O)N[C@@H](C(C)C)C(=O)N[C@@H]([C@@H](C)CC)C(=O)N1)C(=O)N[C@@H](CCCCN)C(=O)N[C@@H](CCC(=O)O)C(=O)N[C@@H](CC(C)C)C(=O)N1CCC[C@H]1C(=O)N[C@@H](CCC(=O)O)C(=O)N[C@@H](CC(C)C)C(=O)N[C@@H](Cc1c[nH]c2ccccc12)C(=O)N[C@@H](CC(C)C)C(N)=O
B3: SP-350 (peptide)
peptide: Ac-LLQAE[R8]LLRALD[S5]VNIDEEVL[Nle][S5]LVI[S5][Nle]-NH2
modifications: staple 6-13, 23-27
SMILES: CCCC[C@H](NC(=O)[C@]1(C)CCCC=CCCC[C@](C)(NC(=O)[C@H](CCCC)NC(=O)[C@H](CC(C)C)NC(=O)[C@@H](NC(=O)[C@H](CCC(=O)O)NC(=O)[C@H](CCC(=O)O)NC(=O)[C@H](CC(=O)O)NC(=O)[C@@H](NC(=O)[C@H](CC(N)=O)NC(=O)[C@@H](NC(=O)[C@]2(C)CCCC=CCCCCCC[C@@](C)(NC(=O)[C@H](CCC(=O)O)NC(=O)[C@H](C)NC(=O)[C@H](CCC(N)=O)NC(=O)[C@H](CC(C)C)NC(=O)[C@H](CC(C)C)NC(C)=O)C(=O)N[C@@H](CC(C)C)C(=O)N[C@@H](CC(C)C)C(=O)N[C@@H](CCCNC(=N)N)C(=O)N[C@@H](C)C(=O)N[C@@H](CC(C)C)C(=O)N[C@@H](CC(=O)O)C(=O)N2)C(C)C)[C@@H](C)CC)C(C)C)C(=O)N[C@@H](CC(C)C)C(=O)N[C@@H](C(C)C)C(=O)N[C@@H]([C@@H](C)CC)C(=O)N1)C(N)=O
B4: SP-119 (peptide)
peptide: Ac-FIDE[S5]VLM[S5]LVIE[Nle]ALDRI-NH2
modifications: staple 5-9
SMILES: CCCC[C@H](NC(=O)[C@H](CCC(=O)O)NC(=O)[C@@H](NC(=O)[C@@H](NC(=O)[C@H](CC(C)C)NC(=O)[C@]1(C)CCCC=CCCC[C@](C)(NC(=O)[C@H](CCC(=O)O)NC(=O)[C@H](CC(=O)O)NC(=O)[C@@H](NC(=O)[C@H](Cc2ccccc2)NC(C)=O)[C@@H](C)CC)C(=O)N[C@@H](C(C)C)C(=O)N[C@@H](CC(C)C)C(=O)N[C@@H](CCSC)C(=O)N1)C(C)C)[C@@H](C)CC)C(=O)N[C@@H](C)C(=O)N[C@@H](CC(C)C)C(=O)N[C@@H](CC(=O)O)C(=O)N[C@@H](CCCNC(=N)N)C(=O)N[C@H](C(N)=O)[C@@H](C)CC
B5: SP-100 (peptide)
peptide: Ac-FIDEEVLM[S5]LVI[S5]MALDRIKE-NH2
modifications: staple 9-13
SMILES: CC[C@H](C)[C@H](NC(=O)[C@H](CCCNC(=N)N)NC(=O)[C@H](CC(=O)O)NC(=O)[C@H](CC(C)C)NC(=O)[C@H](C)NC(=O)[C@H](CCSC)NC(=O)[C@]1(C)CCCC=CCCC[C@](C)(NC(=O)[C@H](CCSC)NC(=O)[C@H](CC(C)C)NC(=O)[C@@H](NC(=O)[C@H](CCC(=O)O)NC(=O)[C@H](CCC(=O)O)NC(=O)[C@H](CC(=O)O)NC(=O)[C@@H](NC(=O)[C@H](Cc2ccccc2)NC(C)=O)[C@@H](C)CC)C(C)C)C(=O)N[C@@H](CC(C)C)C(=O)N[C@@H](C(C)C)C(=O)N[C@@H]([C@@H](C)CC)C(=O)N1)C(=O)N[C@@H](CCCCN)C(=O)N[C@@H](CCC(=O)O)C(N)=O
B6: SP-103 (peptide)
peptide: Ac-FIDEEVLM[S5]LVI[S5]MAA-NH2
modifications: staple 9-13
SMILES: CC[C@H](C)[C@H](NC(=O)[C@H](Cc1ccccc1)NC(C)=O)C(=O)N[C@@H](CC(=O)O)C(=O)N[C@@H](CCC(=O)O)C(=O)N[C@@H](CCC(=O)O)C(=O)N[C@H](C(=O)N[C@@H](CC(C)C)C(=O)N[C@@H](CCSC)C(=O)N[C@@]1(C)CCCC=CCCC[C@@](C)(C(=O)N[C@@H](CCSC)C(=O)N[C@@H](C)C(=O)N[C@@H](C)C(N)=O)NC(=O)[C@H]([C@@H](C)CC)NC(=O)[C@H](C(C)C)NC(=O)[C@H](CC(C)C)NC1=O)C(C)C
B7: SP-99 (peptide)
peptide: Ac-FIDEEVLM[S5]LVI[S5]MG-NH2
modifications: staple 9-13
SMILES: CC[C@H](C)[C@H](NC(=O)[C@H](Cc1ccccc1)NC(C)=O)C(=O)N[C@@H](CC(=O)O)C(=O)N[C@@H](CCC(=O)O)C(=O)N[C@@H](CCC(=O)O)C(=O)N[C@H](C(=O)N[C@@H](CC(C)C)C(=O)N[C@@H](CCSC)C(=O)N[C@@]1(C)CCCC=CCCC[C@@](C)(C(=O)N[C@@H](CCSC)C(=O)NCC(N)=O)NC(=O)[C@H]([C@@H](C)CC)NC(=O)[C@H](C(C)C)NC(=O)[C@H](CC(C)C)NC1=O)C(C)C
B8: SP-102 (peptide)
peptide: Ac-FIDEEVLM[S5]LVI[S5]MA-NH2
modifications: staple 9-13
SMILES: CC[C@H](C)[C@H](NC(=O)[C@H](Cc1ccccc1)NC(C)=O)C(=O)N[C@@H](CC(=O)O)C(=O)N[C@@H](CCC(=O)O)C(=O)N[C@@H](CCC(=O)O)C(=O)N[C@H](C(=O)N[C@@H](CC(C)C)C(=O)N[C@@H](CCSC)C(=O)N[C@@]1(C)CCCC=CCCC[C@@](C)(C(=O)N[C@@H](CCSC)C(=O)N[C@@H](C)C(N)=O)NC(=O)[C@H]([C@@H](C)CC)NC(=O)[C@H](C(C)C)NC(=O)[C@H](CC(C)C)NC1=O)C(C)C
B9: SP-101 (peptide)
peptide: Ac-FIDEEVLM[S5]LVI[S5]MALD-NH2
modifications: staple 9-13
SMILES: CC[C@H](C)[C@H](NC(=O)[C@H](Cc1ccccc1)NC(C)=O)C(=O)N[C@@H](CC(=O)O)C(=O)N[C@@H](CCC(=O)O)C(=O)N[C@@H](CCC(=O)O)C(=O)N[C@H](C(=O)N[C@@H](CC(C)C)C(=O)N[C@@H](CCSC)C(=O)N[C@@]1(C)CCCC=CCCC[C@@](C)(C(=O)N[C@@H](CCSC)C(=O)N[C@@H](C)C(=O)N[C@@H](CC(C)C)C(=O)N[C@@H](CC(=O)O)C(N)=O)NC(=O)[C@H]([C@@H](C)CC)NC(=O)[C@H](C(C)C)NC(=O)[C@H](CC(C)C)NC1=O)C(C)C
B10: SP-98 (peptide)
peptide: Ac-FIDEEVLM[S5]LVI[S5]MGLD-NH2
modifications: staple 9-13
SMILES: CC[C@H](C)[C@H](NC(=O)[C@H](Cc1ccccc1)NC(C)=O)C(=O)N[C@@H](CC(=O)O)C(=O)N[C@@H](CCC(=O)O)C(=O)N[C@@H](CCC(=O)O)C(=O)N[C@H](C(=O)N[C@@H](CC(C)C)C(=O)N[C@@H](CCSC)C(=O)N[C@@]1(C)CCCC=CCCC[C@@](C)(C(=O)N[C@@H](CCSC)C(=O)NCC(=O)N[C@@H](CC(C)C)C(=O)N[C@@H](CC(=O)O)C(N)=O)NC(=O)[C@H]([C@@H](C)CC)NC(=O)[C@H](C(C)C)NC(=O)[C@H](CC(C)C)NC1=O)C(C)C

target: T1, His6-tagged p300 (AA 323-423) (UniProt Q09472 323-423); assay: TR-FRET HIF1a/p300 displacement; grade = IC50 <=200 nM
T1 construct: range 323-423; also called p300-CH; not shown: His6 tag
Method: The ability of peptides to displace HIF1α c-terminal trans-activation domain from p300-CH was measured by a TR FRET assay. […] The complex was diluted to 300 nM final in complete assay media and competitor peptides were added. The complete assay media contained 150 mM NaCl (Sigma +S5150 or equivalent), 20 mM HEPES pH 7.4 (Boston Bioproducts, Ashland, Mass.; #BB-2076), 7.5 mM CHAPS (Thermo #28300 or equivalent), and 1 mM DTT. Protein and peptide were incubated at room temperature for 1 hour before the addition of anti-Flag-K and anti-6×HIS-D2 (CisBio, Bedford Mass.) HTRF reconstitution buffer (50 mM Phosphate pH 7, 0.8 Potassium Flouride, BSA 0.2%)¹ to a final concentration of 0.5 μM and 4 nM respectively. The reaction continued for an additional two hours at room temperature. The reaction was read on a TECAN F500 plate reader with settings recommended by CisBio. The ratio of donor to acceptor fluorescence was calculated. The resulting data was analyzed with Graphpad Prism 5.0. IC50 values were calculated for both proteins using the One Site Fit-LogIC50 equation and presented in the column “IC₅₀ (nM) (HIF1α_p300 Displacement+CHAPS)” of Table 6. ¹ Cisbio USA, Bedford, Mass.; 61HISDLB (lot 007A), 61FG2KLB (024A), HTRF Buffer (62RB3RDF)

T1 sequence (Q09472 323-423 limits assumed): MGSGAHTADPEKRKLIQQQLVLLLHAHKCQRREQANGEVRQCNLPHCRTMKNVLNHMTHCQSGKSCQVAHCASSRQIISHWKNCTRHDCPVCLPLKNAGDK

| IC50 [nM] | Binder |
| --- | --- |
| ≤ 200 | B1 |
| ≤ 200 | B2 |
| ≤ 200 | B3 |
| ≤ 200 | B4 |

target: T1, His6-tagged p300 (AA 323-423); assay: TR-FRET HIF1a/p300 displacement; grade = IC50 >700 nM
How it was run: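 Competitor peptides were added to the HIF1α CTAD/p300 complex (300 nM final) in 150 mM NaCl, 20 mM HEPES pH 7.4, 7.5 mM CHAPS and 1 mM DTT for 1 h at room temperature. Anti-Flag-K (0.5 μM) and anti-6×His-D2 (4 nM) then followed for 2 h. IC50 came from a one-site logIC50 fit of the donor/acceptor ratio.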

| IC50 [nM] | Binder |
| --- | --- |
| > 700 | B5 |
| > 700 | B6 |
| > 700 | B7 |
| > 700 | B8 |
| > 700 | B9 |
| > 700 | B10 |
